Reference: patent US20200199207A1 (MABYLON, published 2020)

Experiments:
nAra h 6 = molecular target: T1, nAra h 6 (peanut, UniProt Q647G9 22-145); experiment: ELISA, antigen-coated plate
T1 construct: Bought natural allergen; also called naturally extracted Ara h 6
T1 sequence (looked up): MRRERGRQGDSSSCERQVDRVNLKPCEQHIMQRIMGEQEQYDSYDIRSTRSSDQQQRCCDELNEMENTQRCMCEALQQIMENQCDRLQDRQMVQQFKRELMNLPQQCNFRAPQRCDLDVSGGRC
Protocol: (§1) EC50 binding of exemplary anti-peanut antibodies of the present invention to peanut allergens or peanut extract, was determined by ELISA. Serial dilutions of MAbs (from 1000 ng/ml down to 0.0169 ng/ml) were incubated for 2 hours with antigen-coated plates (coating overnight at 4° C. or 1 h at 37° C. with 1 μg/ml antigen in PBS, followed by wash out and blocking with 2% BSA in PBS). The plates were subsequently washed and binding of MAbs was detected with anti-human HRP-conjugated Fc-gamma-specific secondary antibody (Jackson ImmunoResearch, West Grove, Pa., USA). Concentrations of MAb resulting in half of maximal binding to respective antigens (EC50, ng/ml) were calculated using GraphPad Prism 5 software on sigmoidal dose-response curves (variable slope, 4 parameters) obtained by plotting the log of the concentration versus OD450 nm measurements; for the results see FIG. 3 and table 2.

nAra h 1 = molecular target: T2, nAra h 1 (peanut, UniProt P43238 85-626); experiment: ELISA, antigen-coated plate
T2 construct: Bought natural allergen; also called naturally extracted Ara h 1
T2 sequence (looked up): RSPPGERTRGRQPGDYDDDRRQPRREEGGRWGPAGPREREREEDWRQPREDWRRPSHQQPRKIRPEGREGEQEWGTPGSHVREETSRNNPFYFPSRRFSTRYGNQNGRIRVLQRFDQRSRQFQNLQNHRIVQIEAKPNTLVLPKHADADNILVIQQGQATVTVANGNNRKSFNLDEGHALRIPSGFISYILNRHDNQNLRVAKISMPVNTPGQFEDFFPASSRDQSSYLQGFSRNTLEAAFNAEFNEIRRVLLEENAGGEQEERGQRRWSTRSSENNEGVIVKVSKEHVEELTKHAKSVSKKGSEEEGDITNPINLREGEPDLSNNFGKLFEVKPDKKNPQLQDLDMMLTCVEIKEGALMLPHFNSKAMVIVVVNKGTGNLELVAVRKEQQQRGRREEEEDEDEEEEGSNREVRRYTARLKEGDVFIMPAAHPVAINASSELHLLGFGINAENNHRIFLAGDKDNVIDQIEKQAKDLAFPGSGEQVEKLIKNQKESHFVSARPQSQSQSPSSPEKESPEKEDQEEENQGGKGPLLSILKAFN
Protocol: as §1

nAra h 2 = molecular target: T3, nAra h 2 (peanut, UniProt Q6PSU2 22-172); experiment: ELISA, antigen-coated plate
T3 construct: Bought natural allergen; also called naturally extracted Ara h 2
T3 sequence (looked up): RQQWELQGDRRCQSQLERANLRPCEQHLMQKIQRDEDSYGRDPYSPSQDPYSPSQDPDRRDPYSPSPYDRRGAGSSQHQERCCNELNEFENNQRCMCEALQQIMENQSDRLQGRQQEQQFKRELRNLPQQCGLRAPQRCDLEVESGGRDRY
Protocol: as §1

nBet v 1 = molecular target: T4, nBet v 1 (UniProt P15494 2-160); experiment: ELISA, antigen-coated plate
T4 sequence (looked up): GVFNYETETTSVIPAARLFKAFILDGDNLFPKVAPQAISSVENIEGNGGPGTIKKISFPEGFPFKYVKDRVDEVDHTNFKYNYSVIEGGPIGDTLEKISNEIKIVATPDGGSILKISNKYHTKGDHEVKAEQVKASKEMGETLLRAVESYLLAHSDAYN
Protocol: as §1

Peptide 7 = molecular target: T5, Peptide 7 (peanut); experiment: competition ELISA, peptide in solution vs coated Ara h 2
T5 construct: also called linear Ara h 2 peptide 7
T5 peptide: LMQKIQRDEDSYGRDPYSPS
Protocol: (§2) A competition ELISA was used to evaluate binding of exemplary anti-peanut antibodies of the present invention to linear Ara h 2 epitopes. Serial dilutions of linear Ara h 2 epitopes (100 μM down to 0.19 nM; peptides with a length of 20 amino acids and an overlap of 12 amino acids between the peptides) were pre-incubated with exemplary anti-peanut antibodies ([…]) for 1 hour at room temperature. The pre-incubated antibody-epitope mixtures were subsequently incubated on plates coated with full length Ara h 2 (coating overnight at 4° C. with 0.05 μg/ml Ara h 2 in PBS, followed by wash out and blocking with 2% BSA in PBS). The plates were subsequently washed and binding of MAbs to Ara h 2 was detected HRP-conjugated goat anti human Fc-gamma-specific antibody (Jackson ImmunoResearch, West Grove, Pa., USA) followed by measurement of the HRP activity using a tetramethylbenzidine substrate solution (TMB, Sigma-Aldrich Chemie GmbH, Buchs, Switzerland). As may be seen from Table 5, exemplary anti-peanut allergen antibody 32B10 binds to different linear Ara h 2 epitopes than 12G10 and 37D5.

Peptide 1 = molecular target: T6, Peptide 1 (peanut); experiment: as above
T6 construct: 20-mer of Ara h 2, overlap of 12 with its neighbours; also called linear Ara h 2 peptide 1
T6 peptide: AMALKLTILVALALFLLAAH
Protocol: as §2

Peptide 3 = molecular target: T7, Peptide 3 (peanut); experiment: as above
T7 construct: also called linear Ara h 2 peptide 3
T7 peptide: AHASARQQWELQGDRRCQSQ
Protocol: as §2

Peptide 12 = molecular target: T8, Peptide 12 (peanut); experiment: as above
T8 construct: also called linear Ara h 2 peptide 12
T8 peptide: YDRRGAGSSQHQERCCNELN
Protocol: as §2

Peptide 13 = molecular target: T9, Peptide 13 (peanut); experiment: as above
T9 construct: also called linear Ara h 2 peptide 13
T9 peptide: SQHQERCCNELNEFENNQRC
Protocol: as §2

Peptide 14 = molecular target: T10, Peptide 14 (peanut); experiment: as above
T10 construct: also called linear Ara h 2 peptide 14
T10 peptide: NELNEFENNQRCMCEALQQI
Protocol: as §2

Peptide 15 = molecular target: T11, Peptide 15 (peanut); experiment: as above
T11 construct: also called linear Ara h 2 peptide 15
T11 peptide: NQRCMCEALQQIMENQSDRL
Protocol: as §2

Peptide 8 = molecular target: T12, Peptide 8 (peanut); experiment: as above
T12 construct: also called linear Ara h 2 peptide 8
T12 peptide: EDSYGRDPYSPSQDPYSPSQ
Protocol: as §2

Peptide 19 = molecular target: T13, Peptide 19 (peanut); experiment: as above
T13 construct: also called linear Ara h 2 peptide 19
T13 peptide: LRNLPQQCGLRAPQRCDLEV
Protocol: as §2

Binder | EC50 (nAra h 6) [ng/mL] | EC50 (nAra h 1) [ng/mL] | EC50 (nAra h 2) [ng/mL] | binding result (nBet v 1) | binding result (Peptide 7) | binding result (Peptide 1) | binding result (Peptide 3) | binding result (Peptide 12) | binding result (Peptide 13) | binding result (Peptide 14) | binding result (Peptide 15) | binding result (Peptide 8) | binding result (Peptide 19)
h2F8 (antibody, V domains shown, Recombinant human IgG; also called hMAb 2F8) VH: EVQLVESGGGLVKPGGSLRLSCAASGFIFSDYNMNWVRQAPGKGLEWVSSITRSSRTIYYADSVKGRFTISRDNAKNSLHLQMNSLRDADTAVYYCAREDFDVSTGPYYMDVWGNGTTVIVSS VL: EIVLTQSPGTLSLSPGERATLSCRASQSVSNMFLVWYQQKPGQAPRLLMYGASTRATDIPDRFSGSGSGTDFTLTISRLEPEDFAVYYCQQNGNSPYTFGQGTKLEIK | 3.4 | 8.5 | 5.6 | no binding (tested: 1000 ng/ml) | no binding (tested: 100 µM) | no binding (tested: 100 µM) | no binding (tested: 100 µM) | no binding (tested: 100 µM) | no binding (tested: 100 µM) | no binding (tested: 100 µM) | no binding (tested: 100 µM) | no binding (tested: 100 µM) | no binding (tested: 100 µM)
h12G10 (antibody, human IgG1, V domains shown, Recombinant human IgG; also called hMAb 12G10) VH: EVQLLESGGRLLRPGGSLSLSCVASGFYFGDFGMSWVRQVPGKGLEWVSGIDWSGRSTGYVDSMKGRLTISRDNDKSSLYLQMNDLRGEDTAVYYCARVGRLCSGDSCDSMGAFDLWGQGTMVTVSS VL: DIQLTQSPSTLSASIGDSVTITCRASQNIDNWLAWYQQKPGKAPRLLIYKASSLGSGVSSKFRGSGFGTEFTLTITSLQPDDFATYYCQKSNGYSRTFGQGTKVDIK | 17.2 | 242 | 6.8 | no binding (tested: 1000 ng/ml) | no binding (tested: 100 µM) | no binding (tested: 100 µM) | no binding (tested: 100 µM) | no binding (tested: 100 µM) | no binding (tested: 100 µM) | no binding (tested: 100 µM) | no binding (tested: 100 µM) | binds | no binding (tested: 100 µM)
h37D5 (antibody, V domains shown, Recombinant human IgG; also called hMAb 37D5) VH: EEQLVESGGRLLRPGESLSLSCAAVGFNFGDFGMAWVRQPPGKGLEWVAGINWSGHSTGFVDSMKGRLTISRDSAKSSLFLQMNSLRGEDTAVYYCARVGRLCSGDICDSMGAFDLWGQGTMVTVSS VL: DIQMTQSPSTLSASIGDRVTITCRASQTIDNWLAWYQQRPGKAPKLLIYQASSLQSGVSSRFRGSGSGTEFTLTITSLQPDDFATYYCQKSNGYSRTFGQGTKVEIK | 22.1 | 264 | 5.6 | no binding (tested: 1000 ng/ml) | no binding (tested: 100 µM) | no binding (tested: 100 µM) | no binding (tested: 100 µM) | no binding (tested: 100 µM) | no binding (tested: 100 µM) | no binding (tested: 100 µM) | no binding (tested: 100 µM) | binds | no binding (tested: 100 µM)
h32B10 (antibody, V domains shown, Recombinant human IgG; also called hMAb 32B10) VH: QVQLVQSGAEVKKPGASVKVSCRASGYIFRNFDINWVRQATGQGLEWMGWMSPKSGDTGYAQKFQGRVTMTRDTSINTAYMELSSLTSEDSAVYYCARGVDGTNWGQGTRVTVSS VL: DIVMTQSPDSLGVSLGERATISCKSSQSILDNSNNKNFIAWFQQKPGQPPKLLIYWASARESGVPDRFSGSGSGTEFTLTINSLQAEDVAVYYCYQYYSTPHTFGQGTKLDLR | 7 | 8.8 | 9.2 | no binding (tested: 1000 ng/ml) | no binding (tested: 100 µM) | no binding (tested: 100 µM) | no binding (tested: 100 µM) | no binding (tested: 100 µM) | no binding (tested: 100 µM) | no binding (tested: 100 µM) | no binding (tested: 100 µM) | no binding (tested: 100 µM) | no binding (tested: 100 µM)
h4B2 (antibody, V domains shown, Recombinant human IgG; also called hMAb 4B2) VH: QVQLQEAGPRLVKPSQTLSVTCTVSGASITIGGYYWSWIRQHPGKGLEWMGYIYSNGRTYYNPSLKSRIAMSIDTSKNQFSLKLTSVTAADTAIYFCAREAWETPLWGQGTLITVSS VL: DIQMTQSPSSLSASVGDRVTITCQANQDIVNSLNWFQHKPGTAPKVLIYDASKLETGVPSRFSGSGSGTHFTFTISGLQPEDFATYFCQQYENLPHTFGQGTKLEIR | 7 | 5.9 | 6.7 | no binding (tested: 1000 ng/ml) | no binding (tested: 100 µM) | no binding (tested: 100 µM) | no binding (tested: 100 µM) | no binding (tested: 100 µM) | no binding (tested: 100 µM) | no binding (tested: 100 µM) | no binding (tested: 100 µM) | no binding (tested: 100 µM) | no binding (tested: 100 µM)
